{
  "source": "patent US11795195B2",
  "about": "“Antibody-drug conjugates including hemiasterlin derivative” (Sumitomo Pharma Co., Ltd., priority 2017, dated 2023)",
  "molecules": {"B1": {"name": "ADC54: ADC of Vadastuximab and M4, average DAR 5.3 (conjugate, chains of the INN, looked up)", "VH": "QVQLVQSGAEVKKPGASVKVSCKASGYTFTNYDINWVRQAPGQGLEWIGWIYPGDGSTKYNEKFKAKATLTADTSTSTAYMELRSLRSDDTAVYYCASGYEDAMDYWGQGTTVTVSS", "VL": "DIQMTQSPSSLSASVGDRVTINCKASQDINSYLSWFQQKPGKAPKTLIYRANRLVDGVPSRFSGSGSGQDYTLTISSLQPEDFATYYCLQYDEFPLTFGGGTKVEIK", "modifications": "drug-linker M4, DAR 5.3"}},
  "system": "HL-60",
  "assay": "Cellular Toxicity Test (3) for ADCs",
  "format": "cell-based",
  "conditions": "HL-60, treatment with 333 nM of ADC",
  "description": "In accordance with the method described in Test Example 3 or Test Example 7, cellular toxicities of Example ADCs were measured using the cell types shown in the following table. As an indicator for the cellular toxicity, IC50 or the cell survival rate upon the treatment with 333 nM of ADC was measured. However, for ADC 51, the cell survival rate upon the treatment with 26.6 nM of ADC51 was measured.",
  "data": [
    {"molecule": "B1", "values": [
      {"measurement": "Cell survival rate (%)", "result": 68, "unit": "%"}
    ]}
  ]
}
